{"source": "the supplement of paper PMC10567573", "parents": {"B1": {"name": "NP_002788.1 (parent)", "chain": "DGWIRVSSDNVADLHEKYSGSTP"}}}
{"variants_of": "B1", "assay": "protein stability index of a GFP-peptide fusion (GPS, HEK-293T) (PSI 1-6); higher = more stable", "details": "c terminus: native"}
{"variant": "DGWIRVSSDNVADLHEKVSGSTP", "note": "[Y18V]", "protein stability index": 3.22}
{"variant": "DGWIRVSSDNVADLHEKWSGSTP", "note": "[Y18W]", "protein stability index": 2.81}
{"variant": "DGWIRVSSDNVADLHEKYAGSTP", "note": "[S19A]", "protein stability index": 2.26}
{"variant": "DGWIRVSSDNVADLHEKYCGSTP", "note": "[S19C]", "protein stability index": 2.9}
{"variant": "DGWIRVSSDNVADLHEKYDGSTP", "note": "[S19D]", "protein stability index": 3.5}
{"variant": "DGWIRVSSDNVADLHEKYEGSTP", "note": "[S19E]", "protein stability index": 2.87}
{"variant": "DGWIRVSSDNVADLHEKYFGSTP", "note": "[S19F]", "protein stability index": 2.82}
{"variant": "DGWIRVSSDNVADLHEKYGGSTP", "note": "[S19G]", "protein stability index": 3.02}
{"variant": "DGWIRVSSDNVADLHEKYHGSTP", "note": "[S19H]", "protein stability index": 2.56}
{"variant": "DGWIRVSSDNVADLHEKYIGSTP", "note": "[S19I]", "protein stability index": 2.49}
{"variant": "DGWIRVSSDNVADLHEKYKGSTP", "note": "[S19K]", "protein stability index": 1.95}
{"variant": "DGWIRVSSDNVADLHEKYLGSTP", "note": "[S19L]", "protein stability index": 2}
{"variant": "DGWIRVSSDNVADLHEKYMGSTP", "note": "[S19M]", "protein stability index": 2.28}
{"variant": "DGWIRVSSDNVADLHEKYNGSTP", "note": "[S19N]", "protein stability index": 3.07}
{"variant": "DGWIRVSSDNVADLHEKYPGSTP", "note": "[S19P]", "protein stability index": 2.34}
{"variant": "DGWIRVSSDNVADLHEKYQGSTP", "note": "[S19Q]", "protein stability index": 2.41}
{"variant": "DGWIRVSSDNVADLHEKYRGSTP", "note": "[S19R]", "protein stability index": 2.34}
{"variant": "DGWIRVSSDNVADLHEKYTGSTP", "note": "[S19T]", "protein stability index": 2.47}
{"variant": "DGWIRVSSDNVADLHEKYVGSTP", "note": "[S19V]", "protein stability index": 2.94}
{"variant": "DGWIRVSSDNVADLHEKYWGSTP", "note": "[S19W]", "protein stability index": 2.68}
{"variant": "DGWIRVSSDNVADLHEKYYGSTP", "note": "[S19Y]", "protein stability index": 2.47}
{"variant": "DGWIRVSSDNVADLHEKYSASTP", "note": "[G20A]", "protein stability index": 3.8}
{"variant": "DGWIRVSSDNVADLHEKYSCSTP", "note": "[G20C]", "protein stability index": 2.82}
{"variant": "DGWIRVSSDNVADLHEKYSDSTP", "note": "[G20D]", "protein stability index": 4.65}
{"variant": "DGWIRVSSDNVADLHEKYSESTP", "note": "[G20E]", "protein stability index": 4.64}
{"variant": "DGWIRVSSDNVADLHEKYSFSTP", "note": "[G20F]", "protein stability index": 3.63}
{"variant": "DGWIRVSSDNVADLHEKYSHSTP", "note": "[G20H]", "protein stability index": 3.79}
{"variant": "DGWIRVSSDNVADLHEKYSISTP", "note": "[G20I]", "protein stability index": 3.86}
{"variant": "DGWIRVSSDNVADLHEKYSKSTP", "note": "[G20K]", "protein stability index": 3.93}
{"variant": "DGWIRVSSDNVADLHEKYSLSTP", "note": "[G20L]", "protein stability index": 3.72}
{"variant": "DGWIRVSSDNVADLHEKYSMSTP", "note": "[G20M]", "protein stability index": 3.63}
{"variant": "DGWIRVSSDNVADLHEKYSNSTP", "note": "[G20N]", "protein stability index": 3.92}
{"variant": "DGWIRVSSDNVADLHEKYSPSTP", "note": "[G20P]", "protein stability index": 3.99}
{"variant": "DGWIRVSSDNVADLHEKYSQSTP", "note": "[G20Q]", "protein stability index": 3.43}
{"variant": "DGWIRVSSDNVADLHEKYSRSTP", "note": "[G20R]", "protein stability index": 4.17}
{"variant": "DGWIRVSSDNVADLHEKYSSSTP", "note": "[G20S]", "protein stability index": 3.44}
{"variant": "DGWIRVSSDNVADLHEKYSTSTP", "note": "[G20T]", "protein stability index": 4.17}
{"variant": "DGWIRVSSDNVADLHEKYSVSTP", "note": "[G20V]", "protein stability index": 3.82}
{"variant": "DGWIRVSSDNVADLHEKYSWSTP", "note": "[G20W]", "protein stability index": 2.9}
{"variant": "DGWIRVSSDNVADLHEKYSYSTP", "note": "[G20Y]", "protein stability index": 3.29}
{"variant": "DGWIRVSSDNVADLHEKYSGATP", "note": "[S21A]", "protein stability index": 2.21}
{"variant": "DGWIRVSSDNVADLHEKYSGCTP", "note": "[S21C]", "protein stability index": 1.98}
{"variant": "DGWIRVSSDNVADLHEKYSGDTP", "note": "[S21D]", "protein stability index": 4.54}
{"variant": "DGWIRVSSDNVADLHEKYSGETP", "note": "[S21E]", "protein stability index": 4.56}
{"variant": "DGWIRVSSDNVADLHEKYSGFTP", "note": "[S21F]", "protein stability index": 2.16}
{"variant": "DGWIRVSSDNVADLHEKYSGGTP", "note": "[S21G]", "protein stability index": 3.59}
{"variant": "DGWIRVSSDNVADLHEKYSGHTP", "note": "[S21H]", "protein stability index": 2.49}
{"variant": "DGWIRVSSDNVADLHEKYSGITP", "note": "[S21I]", "protein stability index": 1.95}
{"variant": "DGWIRVSSDNVADLHEKYSGKTP", "note": "[S21K]", "protein stability index": 3.06}
{"variant": "DGWIRVSSDNVADLHEKYSGLTP", "note": "[S21L]", "protein stability index": 2.06}
{"variant": "DGWIRVSSDNVADLHEKYSGMTP", "note": "[S21M]", "protein stability index": 1.87}
{"variant": "DGWIRVSSDNVADLHEKYSGNTP", "note": "[S21N]", "protein stability index": 1.94}
{"variant": "DGWIRVSSDNVADLHEKYSGPTP", "note": "[S21P]", "protein stability index": 3.5}
{"variant": "DGWIRVSSDNVADLHEKYSGQTP", "note": "[S21Q]", "protein stability index": 3.01}
{"variant": "DGWIRVSSDNVADLHEKYSGRTP", "note": "[S21R]", "protein stability index": 2.16}
{"variant": "DGWIRVSSDNVADLHEKYSGTTP", "note": "[S21T]", "protein stability index": 2.19}
{"variant": "DGWIRVSSDNVADLHEKYSGVTP", "note": "[S21V]", "protein stability index": 1.83}
{"variant": "DGWIRVSSDNVADLHEKYSGWTP", "note": "[S21W]", "protein stability index": 3.02}
{"variant": "DGWIRVSSDNVADLHEKYSGYTP", "note": "[S21Y]", "protein stability index": 2.26}
{"variant": "DGWIRVSSDNVADLHEKYSGSAP", "note": "[T22A]", "protein stability index": 3.29}
{"variant": "DGWIRVSSDNVADLHEKYSGSCP", "note": "[T22C]", "protein stability index": 2.36}
{"variant": "DGWIRVSSDNVADLHEKYSGSDP", "note": "[T22D]", "protein stability index": 2.98}
{"variant": "DGWIRVSSDNVADLHEKYSGSEP", "note": "[T22E]", "protein stability index": 2.64}
{"variant": "DGWIRVSSDNVADLHEKYSGSFP", "note": "[T22F]", "protein stability index": 2.12}
{"variant": "DGWIRVSSDNVADLHEKYSGSGP", "note": "[T22G]", "protein stability index": 2.58}
{"variant": "DGWIRVSSDNVADLHEKYSGSHP", "note": "[T22H]", "protein stability index": 3.06}
{"variant": "DGWIRVSSDNVADLHEKYSGSIP", "note": "[T22I]", "protein stability index": 2.31}
{"variant": "DGWIRVSSDNVADLHEKYSGSKP", "note": "[T22K]", "protein stability index": 4.96}
{"variant": "DGWIRVSSDNVADLHEKYSGSLP", "note": "[T22L]", "protein stability index": 2.28}
{"variant": "DGWIRVSSDNVADLHEKYSGSMP", "note": "[T22M]", "protein stability index": 2}
{"variant": "DGWIRVSSDNVADLHEKYSGSNP", "note": "[T22N]", "protein stability index": 4.05}
{"variant": "DGWIRVSSDNVADLHEKYSGSPP", "note": "[T22P]", "protein stability index": 4.85}
{"variant": "DGWIRVSSDNVADLHEKYSGSQP", "note": "[T22Q]", "protein stability index": 2.78}
{"variant": "DGWIRVSSDNVADLHEKYSGSRP", "note": "[T22R]", "protein stability index": 3.98}
{"variant": "DGWIRVSSDNVADLHEKYSGSSP", "note": "[T22S]", "protein stability index": 3.1}
{"variant": "DGWIRVSSDNVADLHEKYSGSVP", "note": "[T22V]", "protein stability index": 2.46}
{"variant": "DGWIRVSSDNVADLHEKYSGSWP", "note": "[T22W]", "protein stability index": 2.81}
{"variant": "DGWIRVSSDNVADLHEKYSGSYP", "note": "[T22Y]", "protein stability index": 2.63}
{"variant": "DGWIRVSSDNVADLHEKYSGSTA", "note": "[P23A]", "protein stability index": 4.55}
{"variant": "DGWIRVSSDNVADLHEKYSGSTC", "note": "[P23C]", "protein stability index": 4.56}
{"variant": "DGWIRVSSDNVADLHEKYSGSTD", "note": "[P23D]", "protein stability index": 5.08}
{"variant": "DGWIRVSSDNVADLHEKYSGSTE", "note": "[P23E]", "protein stability index": 5.11}
{"variant": "DGWIRVSSDNVADLHEKYSGSTF", "note": "[P23F]", "protein stability index": 4.29}
{"variant": "DGWIRVSSDNVADLHEKYSGSTG", "note": "[P23G]", "protein stability index": 4.43}
{"variant": "DGWIRVSSDNVADLHEKYSGSTH", "note": "[P23H]", "protein stability index": 4.63}
{"variant": "DGWIRVSSDNVADLHEKYSGSTI", "note": "[P23I]", "protein stability index": 3.13}
{"variant": "DGWIRVSSDNVADLHEKYSGSTK", "note": "[P23K]", "protein stability index": 5.05}
{"variant": "DGWIRVSSDNVADLHEKYSGSTL", "note": "[P23L]", "protein stability index": 3.93}
{"variant": "DGWIRVSSDNVADLHEKYSGSTM", "note": "[P23M]", "protein stability index": 3.41}
{"variant": "DGWIRVSSDNVADLHEKYSGSTN", "note": "[P23N]", "protein stability index": 4.71}
{"variant": "DGWIRVSSDNVADLHEKYSGSTQ", "note": "[P23Q]", "protein stability index": 4.78}
{"variant": "DGWIRVSSDNVADLHEKYSGSTR", "note": "[P23R]", "protein stability index": 3.78}
{"variant": "DGWIRVSSDNVADLHEKYSGSTS", "note": "[P23S]", "protein stability index": 5}
{"variant": "DGWIRVSSDNVADLHEKYSGSTT", "note": "[P23T]", "protein stability index": 4.51}
{"variant": "DGWIRVSSDNVADLHEKYSGSTV", "note": "[P23V]", "protein stability index": 4.02}
